Reference: patent publication US6617306B2, “Carrier for in vivo delivery of a therapeutic agent” (priority 1998, dated 2003)
Side chains are listed from the residue outwards. * marks the point of attachment. Biotin = O=C1N[C@H]2[C@H](CS[C@H]2CCCCC(=O)*)N1; cysteamine‑PEG/Lys copolymer = not defined here; PEG/Lys copolymer = not defined here

Legend:
[1] = Release of peptide from PEG/Lys carrier by reductive cleavage of the disulfide linkage with glutathione; format: physicochemical; conditions: for half-time of release of peptide from carrier: 3 mM glutathione in PBS (pH 7.4), room temperature, cysteamine thiol linker
Method: The disulfide linked conjugate, PEG-cysteamine-N-acetyl-Phe-Arg-Arg-Arg-Cys-NH2 (SEQ ID NO:9) was added to a solution of reduced glutathione (3 mM in PBS) to a final peptide concentration of 0.3 mM, and then incubated under N2 at room temperature. A sample was taken at each time point, acidified by adding an aliquot of 5% TFA and applied to a G-75 column in 0.1% TFA (7 ml bed volume) to separate PEG-conjugated peptide from free peptide. Appropriate fractions in the high-molecular-weight region were pooled, and the extent of peptide derivatization at each time point was determined by amino acid analysis. For measuring the release of radiolabeled peptide, each time point aliquot was acidified to pH 3.5 with sulfuric acid. The PEG-conjugated peptide and the free peptide were then separated using ultrafiltration on “CENTRICON-10”. To ensure complete separation, the retentate was diluted and ultrafiltered two more times. Radioactivity in the retentate and combined filtrate was quantitated by scintillation counting.
Release of the peptide, N-acetyl-Phe-Arg-Arg-Arg-Cys-NH2 (SEQ ID NO:9), by reductive cleavage of its disulfide linkage to a carrier of the present invention comprising a PEG/Lys copolymer was evaluated using 3 mM glutathione in PBS (pH 7.4) at room temperature. At each time point, an aliquot was withdrawn and acidified to halt the disulfide interchange reaction. Released peptide was removed from PEG/Lys-peptide conjugate by gel filtration chromatography, and the ratio of PEG (i.e. Lys residues) to peptide (i.e. Phe or Arg residues) was determined by amino acid analysis.
Release kinetics were also studied using the disulfide-linked radiolabeled peptides, N-acetyl-Arg-Lys-Lys-Arg-Arg-Gln-Arg-Arg-Arg-Cys-NH2 (SEQ ID NO:10) and N-acetyl-Arg-Lys-Lys-Arg-Arg-Gln-Arg-Arg-Arg-Lys-(biotin)-Cys-NH2 (SEQ ID NO:3). Released peptide was removed from PEG/Lys-peptide conjugate by ultrafiltration.
Analysis of the release rate of the radiolabeled peptide, N-acetyl-Arg-Lys-Lys-Arg-Arg-Gln-Arg-Arg-Arg-Lys-(biotin)-Cys-NH2 (SEQ ID NO:3) gave a half-time of about 40 min in the presence of 30 mM glutathione (FIG. 6). Since the disulfide cleavage rate is proportional to glutathione concentration^8, the sterically hindered linker has a release rate about 100 times slower than does a carrier of the present invention in which the thiol compound is cysteamine. Thus, the release rate can be readily controlled by selection of a thiol compound having functional groups, wherein the thiol compound is conjugated to the polymer, and conjugated via a disulfide bond to a therapeutic agent.

Tat binding to TAR RNA = test: TAR-CAT / Tat plasmid transfected Jurkat cells, CAT protein by immunoassay; format: cell-based, HIV-1; conditions: inhibitor added at 18 h, CAT measured at 42 h
Method: FIG. 7 is a graph of the comparison of the inhibition of protein expression in a Jurkat cell line transfected with a TAR-CAT (TAR-Chloramphenicol Acetyl Transferase) plasmid and a Tat-protein plasmid. In this experiment, one group of cells was administered a Tat inhibitory biotinylated polypeptide derivative having a sequence of N-acetyl-Arg-Lys-Lys-Arg-Arg-Gln-Arg-Arg-Arg-Lys-(biotin)-Cys-NH2 (SEQ ID NO:3), and another group of cells was administered the same Tat inhibitory biotinylated peptide derivative conjugated to a carrier of the present invention via a disulfide bond between the sulfur atom of the thiol group of the thiol compound, and the thiol group of the Cys residue located between biotin and the amino group of the Tat inhibitory biotinylated polypeptide derivative of SEQ ID NO:3. […] Cysteamine was the thiol compound conjugated to the polymer. Conjugation of cysteamine to the polymer involved the carboxylic acid group of the lysine incorporated into the copolymer, which was available for reaction. If the polypeptide was successful in inhibiting Tat binding to TAR, CAT […]. […]
Initially, a Jurkat cell line was stably transfected with a TAR-CAT plasmid. […] At t=42 hours, the cells were harvested and CAT protein was measured by immunoassay. […]

PEG-cysteamine-SEQ ID NO:3: SEQ ID NO:3 peptide disulfide-linked via its Cys to the cysteamine-PEG carrier (PEG/lysine copolymer, about 27,000 D) (Ac-RKKRRQRRRKC([cysteamine (disulfide)-PEG/Lys copolymer])-NH2; reading uncertain; also: Lys(biotin), position not given here)
half-time of release of peptide from carrier [1]: about 3 minutes | increase in potency relative to biotinylated Tat-peptide inhibitor administered alone (Tat binding to TAR RNA): about 5 fold

PEG-cysteamine-N-acetyl-Phe-Arg-Arg-Arg-Cys-NH2 (Ac-FRRRC(cysteamine‑PEG/Lys copolymer)-NH2; reading uncertain; also: Cys disulfide-linked to PEG/Lys cysteamine carrier, printed as PEG-cysteamine-N-acetyl-Phe-Arg-Arg-Arg-Cys-NH2) [PEG-cysteamine-SEQ ID NO:9]
half-time of release of peptide from carrier [1]: about 3 minutes

PEG-1-amino-2-methyl-2-propanethiol-SEQ ID NO:3: radiolabeled SEQ ID NO:3 peptide disulfide-linked to PEG/Lys derivative of sterically hindered 1-amino-2-methyl-2-propanethiol (Ac-RKKRRQRRRK(Biotin)C-NH2; not fully specified (residue 11); printed as N-acetyl-Arg-Lys-Lys-Arg-Arg-Gln-Arg-Arg-Arg-Lys-(biotin)-Cys-NH2; also: acetyl group tritium-labelled, Cys11 disulfide-linked to PEG/Lys carrier bearing 1-amino-2-methyl-2-propanethiol)
half-time of release of radiolabeled peptide from carrier ([1]; 30 mM glutathione in PBS, sterically hindered linker 1-amino-2-methyl-2-propanethiol): about 40 min | release rate, times slower than carrier with cysteamine ([1]; cleavage rate taken as proportional to glutathione concentration): about 100 times

PEG-cysteamine-SEQ ID NO:10: radiolabeled SEQ ID NO:10 peptide disulfide-linked to PEG/Lys copolymer through cysteamine (Ac-RKKRRQRRRC-NH2; not fully specified (residue 10); printed as N-acetyl-Arg-Lys-Lys-Arg-Arg-Gln-Arg-Arg-Arg-Cys-NH2; also: radiolabel)
half-time of release of peptide from carrier [1]: about 3 minutes
